Assays:
[1] = biological target: T1, von Willebrand factor (VWF) (Homo sapiens, UniProt P04275 P04275:764-2813); assay: filter; Bmax 86%; 2 mM CaCl2, 37 C; settings: Haematologic Technologies Inc, label: 5'-32P
Method: (§1) Affinity constants (Kd values) were determined using double-filter nitrocellulose filter binding assays (Rusconi et al, Thromb. Haemost. $4:841-848 (2000)). All binding studies were performed in binding buffer F (20 mM HEPES, pH 7.4, 150 mM NaCl, 2 mM CaCl₂, and 0.01% BSA) at 37° C. Human purified VWF (factor VIII free) was purchased from Haematologic Technologies Inc. (Essex Junction, Vt.) and used in the double-filter nitrocellulose filter binding assay to determine the Kd of the aptamers. Briefly, RNA were end-labeled at the 5′ end with T4 polynucleotide kinase (New England Biolabs, Beverly, Mass.) and [γ³²P] ATP (Amersham Pharmacia Biotech, Piscataway, N.J.) (Fitzwater and Polisky, Methods Enzymol. 267:275-301 (1996)). End-labeled RNA was diluted in binding buffer F, heat denatured at 65° C. for 5 minutes, and subsequently equilibrated at 37° C. Direct binding was performed by incubating trace ³²P-RNA with varying concentrations of VWF protein in binding buffer F at 37° C. for 5 min. The fraction of the nucleic acid-protein complex which bound to the nitrocellulose membrane was quantified with a phosphorimager (Molecular Dynamics, Sunnyvale, Calif.). Non-specific binding of the radiolabeled nucleic acid was subtracted out of the binding such that only specific binding remained (Wong and Lohman, Proc. Natl. Acad. Sci. USA 90:5428-5432 (1993)).

[2] = biological target: T1, von Willebrand factor (VWF); assay: filter; Bmax 54%; 2 mM CaCl2, 37 C; settings: tags: factor VIII free, Haematologic Technologies Inc; label: 5'-32P
Method: as §1

[3] = biological target: T1, von Willebrand factor (VWF); assay: filter; NB; loop CAGA mutated; 2 mM CaCl2, 37 C; settings: tags: factor VIII free, Haematologic Technologies Inc; label: 5'-32P
Method: as §1

[4] = biological target: T1, von Willebrand factor (VWF); assay: filter; Bmax 58%; 2 mM CaCl2, 37 C; settings: tags: factor VIII free, Haematologic Technologies Inc; label: 5'-32P
Method: as §1

[5] = biological target: T1, von Willebrand factor (VWF); assay: filter; Bmax 82%; 2 mM CaCl2, 37 C; settings: Haematologic Technologies Inc, label: 5'-32P
Method: as §1

[6] = biological target: T1, von Willebrand factor (VWF); assay: filter; Bmax 87%; 2 mM CaCl2, 37 C; settings: Haematologic Technologies Inc, label: 5'-32P
Method: as §1

[7] = biological target: T1, von Willebrand factor (VWF); assay: filter; Bmax 80%; 2 mM CaCl2, 37 C; settings: tags: factor VIII free human purified VWF, Haematologic Technologies Inc; label: 5'-32P
Method: as §1

[8] = biological target: T1, von Willebrand factor (VWF); assay: filter; Bmax 88%; 2 mM CaCl2, 37 C; settings: tags: factor VIII free, Haematologic Technologies Inc; label: 5'-32P
Method: as §1

[9] = biological target: T1, von Willebrand factor (VWF); assay: filter; Bmax 78%; 2 mM CaCl2, 37 C; settings: tags: factor VIII free human purified VWF, Haematologic Technologies Inc; label: 5'-32P
Method: as §1

[10] = biological target: T1, von Willebrand factor (VWF); assay: filter; Bmax 81%; 2 mM CaCl2, 37 C; settings: tags: factor VIII free, Haematologic Technologies Inc; label: 5'-32P
Method: as §1

[11] = biological target: T1, von Willebrand factor (VWF); assay: filter; Bmax 67%; 2 mM CaCl2, 37 C; settings: tags: factor VIII free, Haematologic Technologies Inc; label: 5'-32P
Method: as §1

[12] = tags: factor VIII free human purified VWF

## ACGAACUGCCCUCGAUCGACGCACAGACGU (ssRNA, 2'-F U7,C9,C10,C11,U12,C20,C22,U30; ribo G8,A19; rest 2'-OMe; 3' idT) [T59 vrt25]
[1]; [12]
  Kd: 76 nM

B1: T11 (ssRNA)
RNA: GGGAGGACGAACUGCCCUCAGCUACUUUCAUGUUGCUGACGCACAGACGACUCGCUG
modifications: 2'-F C and U; 2'-OH A and G
[2]
  Kd: 16.5 nM

## ACGAACUGCCCUCGAUCGACGCACAGACGU (ssRNA, rAmCrGmAmAmCfUrGfCfCfCfUmCmGmAmUmCmGrAfCrGfCrAmCmAmGmAfCmGfU-idT) [T59 vrt9]
[1]; tags: factor VIII free
  Kd: 1 nM

## ACGAACUGCCCUCUUUCAUGACGCACCCCCGU (ssRNA, 2'-F C and U; 2'-OH A and G; 3' idT) [T98]
[3]
  binding result: no binding

## ACGAACUGCCCUCUUUCAUGACGCACAGACGU (ssRNA, 2'-F C and U; 2'-OH A and G; 3' idT) [T87]
[1]; tags: factor VIII free
  Kd: 11 nM

## ACGAACUGCCCUCUUUUUUGACGCACCCCCGU (ssRNA, 2'-F C and U; 2'-OH A and G; 3' idT) [T101]
[3]
  binding result: no binding

## ACGAACUGCCCUCAGCUAUUUCAUUUGCUGACGCACAGACGU (ssRNA, 2'-F C and U; 2'-OH A and G; 3' idT) [T36]
[4]
  Kd: 11 nM

## ACGAACUGCCCUCGAUCGACGCACAGACGU (ssRNA, mAfCrGmAmAmCfUrGfCfCfCfUmCmGmAmUmCmGrAfCrGfCrAmCmAmGmAfCrGfU-idT) [T59 vrt8]
[1]; tags: factor VIII free
  Kd: 1.8 nM

## CCGAACUGCCCUCGAUCGACGCACAGACGG (ssRNA, mCmCmGmAmAmCmUmGfCfCfCmUmCmGmAmUmCmGmAfCrGfCmAmCmAmGmAmCmGmGidT) [DTRI-013]
[4]
  Kd: 5.4 nM

## ACGAACUGCCCUCGAUCGACGCACAGACGU (ssRNA, mAmCmGmAmAmCmUmGfCfCfCmUmCmGmAmUmCmGmAfCrGfCmAmCmAmGmAmCmGfU-idT) [T59 vrt19]
[5]; tags: factor VIII free
  Kd: 5.5 nM

## ACGAACUGCCCUCGAUCGACGCACAGACGU (ssRNA, rAfCrGmAmAmCfUrGfCfCfCmUmCmGmAmUmCmGmAfCrGfCrAmCmAmGmAfCrGfU-idT) [T59 vrt2]
[6]; tags: factor VIII free
  Kd: 5.5 nM

## ACGAACUGCCCUCUAUUAUUUGACGCACCCCCGU (ssRNA, 2'-F C and U; 2'-OH A and G; 3' idT) [T99]
[3]
  binding result: no binding

B2: T90 vrt1 (ssRNA)
RNA: ACGAACUGCCCUCUAUUAUUUGACGCACAGACGU
modifications: 2'-F C2,U7,C9,C10,C11,U12,C24,C26,C32,U34; ribo A1,G3,G8,A23,G25,A27,G33; rest 2'-OMe; 3' idT
[6]; [12]
  Kd: 0.9 nM

## ACGAACUGCCCUCUAUUAUUUGACGCACAGACGU (ssRNA, 2'-F C9,C10,C11,C24,G25,C26,U34; rest 2'-OMe; 3' idT) [T90 vrt6]
[7]
  Kd: 46 nM

## ACGAACUGCCCUCUAUUAUUUGACGCACAGACGU (ssRNA, 2'-F C9,C10,C11,C24,G25,C26; rest 2'-OMe; 3' idT) [T90 vrt7]
[7]
  Kd: 42 nM

## ACGAACUGCCCUCGAUCGACGCACAGACGU (ssRNA, rAfCrGmAmAmCfUmGfCfCfCfUmCmGmAmUmCmGrAfCrGfCrAmCmAmGmAfCrGfU-idT) [T59 vrt11]
[8]
  Kd: 1.3 nM

## ACGAACUGCCCUCGAUCGACGCACAGACGUACCCG (ssRNA, 2'-F C9,C10,C11,C20,C22; ribo G21; rest 2'-OMe; 3' idT) [T82 vrt4]
[6]; [12]
  Kd: 38.5 nM

## ACGAACUGCCCUCGAUCGACGCACAGACGUACCCG (ssRNA, 2'-F C9,C10,C11,C20,G21,C22; rest 2'-OMe; 3' idT) [T82 vrt7]
[9]
  Kd: 268 nM

## ACGAACUGCCCUCUUAUGACGCACAGACGU (ssRNA, 2'-F C and U; 2'-OH A and G; 3' idT) [T68]
[5]; tags: factor VIII free
  Kd: 16 nM

## ACGAACUGCCCUCGAUCGACGCACAGACGU (ssRNA, rAfCmGmAmAmCfUrGfCfCfCfUmCmGmAmUmCmGrAfCrGfCrAmCmAmGmAmCrGfU-idT) [T59 vrt10]
[10]
  Kd: 0.4 nM

## ACGAACUGCCCUCUAUUUCAUUUGACGCACAGACGU (ssRNA, 2'-F C9,C10,C11,C26,C28; ribo G27; rest 2'-OMe; 3' idT) [T93 vrt4]
[5]; [12]
  Kd: 5.7 nM

## ACGAACUGCCCUCUAUUUCAUUUGACGCACAGACGU (ssRNA, 2'-F C9,C10,C11,C26,G27,C28,U36; rest 2'-OMe; 3' idT) [T93 vrt6]
[5]; [12]
  Kd: 33 nM

## ACGAACUGCCCUCGAUCGACGCACAGACGU (ssRNA, mAmCmGmAmAmCmUmGfCfCfCmUmCmGmAmUmCmGmAfCrGfCmAmCmAmGmAmCmGmUidT) [DTRI-008]
[11]
  Kd: 7 nM

Source: US20190218553, “VON WILLEBRAND FACTOR (VWF)-TARGETING AGENTS AND METHODS OF USING THE SAME” (DUKE UNIVERSITY, published 2019)
